Measurements reported in paper PMC11449929, “Structural basis of α-latrotoxin transition to a cation-selective pore” (Nature Communications, 2024).
“And” between values parts separate entries of the source, which are not always exact repeats. Equal values may be shown once.

Biological target: the molecule itself
Experiment: cryo-EM structure; α-LTX at 0.5 mg/ml in 25 mM Tris-HCl pH 8.0, 150 mM NaCl, 0.1 mM CaCl2, 0.2 mM MgCl2; 2D classification and 3D reconstruction of two tetrameric states (prepore, pore)

B1: α-latrotoxin (natural protein)
chain: EGEDLTLEEKAEICSELELQQKYVDIASNIIGDLSSLPIAGKIAGTIAAAAMTATHVASGRLDIEQTLLGCSDLPFDQIKEVLENRFNEIDRKLDSHSAALEEITKLVEKSISVVEKTRKQMNKRFDEVMKSIQDAKVSPIISKINNFARYFDTEKERIRGLKLNDYILKLEEPNGILLHFKESRTPTDDSLQAPLFSIIEEGYAVPKSIDDELAFKVLYALLYGTQTYVSVMFFLLEQYSFLANHYYEKGYLEKYDEYFNSLNNVFLDFKSSLVGTGTSNNEGLLDRVLQVLMTVKNSEFLGLEKNGVDEMLNEKINLFNKIKEEIEGKQKMTLSETPENFAQISFDKDITTPIGDWRDGREVRYAVQYASETLFSKISHWSDPVSVREKACPTLRMPVDQTRRNVLVFRKFDSSKPQLVGEITPYLSNFIDIDRDLYNAASNPDSAVGFKEFTKLNYDGANIRATFDHGRTVFHAAAKSGNDKIMFGLTFLAKSTELNQPDKKGYTPIHVAADSGNAGIVNLLIQRGVSINSKTYHFLQTPLHLAAQRGFVTTFQRLMESPEININERDKDGFTPLHYAIRGGERILEAFLNQISIDVNAKSNTGLTPFHLAIIKNDWPVASTLLGSKKVDINAVDENNITALHYAAILGYLETTKQLINLKEINANVVSSPGLLSALHYAILYKHDDVASFLMRSSNVNVNLKALGGITPLHLAVIQGRKQILSLMFDIGVNIEQKTDEKYTPLHLAAMSKYPELIQILLDQGSNFEAKTNSGATPLHLATFKGKSQAALILLNNEVNWRDTDENGQMPIHGAAMTGLLDVAQAIISIDATVVDIEDKNSDTPLNLAAQNSHIDVIKYFIDQGADINTRNKKGLAPLLAFSKKGNLDMVKYLFDKNANVYIADNDGMNFFYYAVQNGHLNIVKYAMSEKDKFEWSNTDNNRRDECPNEECAISHFAVCDAVQFDRIEIVKYFVGTLGNFAICGPLHQAARYGHLDIVKYLVEEEFLSVDGSKTDTPLCYASENGHFTVVQYLVSNGAKVNHDCGNGMTAIDKAITKNHLQVVQFLAANGVDFRRKNSRGTTPFLTAVAENALHIAEYLIREKRQDININEQNVDKDTALHLAVYYKNLQMIKLLIKYGIDVTIRNAYDKTALDIAIDAKFSNIVEYLKTKSGKFRR
notes: Tetramer in the presence of Ca2+/Mg2+; monomers, dimers and trimers stand in the same sample; Disulfide bonds seen: C34-C91 (CC1), C968-C973 (CC2), and CC3 and CC4 in AR15-19; the model ends at G1195; also called α-LTX
  stoichiometry N: 4 and 3 and 2
